In the series the test system is phiC31 integrase (Streptomyces phage phiC31?). In words: cell_activity. The following applies: E. coli, 1% L-arabinose, 32 C, 60-120 min, resuspended 4:1 in fresh LB.

The values that follow come from patent US20040214329.

“phiC31 attB/attP sites flanking expression cassette in pBAD.phiC31.RHB”: the activity (% recombination) was more than 97.
